PMC11327110 (2024)
Blank lines part the entries; values can stand above or below the binder they belong to.

Tests used:
[1] = target: T1, proteasome subunit α3 (PSMA4) (Homo sapiens (Human), UniProt P25789); test: cryo-EM structure of co-purified complex; contact seen within the assembled multi-subunit intermediate; isolated pair only cited from earlier yeast two-hybrid
T1 chain: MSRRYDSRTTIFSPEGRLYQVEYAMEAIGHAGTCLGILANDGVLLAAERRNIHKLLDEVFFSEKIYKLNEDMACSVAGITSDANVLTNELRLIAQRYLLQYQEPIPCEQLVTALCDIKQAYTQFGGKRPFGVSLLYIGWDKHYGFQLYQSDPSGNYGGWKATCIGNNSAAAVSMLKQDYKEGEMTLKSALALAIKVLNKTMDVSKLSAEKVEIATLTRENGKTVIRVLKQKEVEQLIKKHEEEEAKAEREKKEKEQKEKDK

[2] = target: T1, proteasome subunit α3 (PSMA4); test: cryo-EM structure of co-purified complex; contact seen only within structure 1 (complete α-ring, PAC1/PAC2, POMP, β2); pair not tested in isolation
[3] = target: T2, proteasome subunit α7 (PSMA3) (Homo sapiens (Human), UniProt P25788); test: cryo-EM structure of co-purified complex; contact seen only within the assembled multi-subunit intermediate (PAC2 C-terminus in α6-α7 pocket); pair not tested in isolation
T2 chain: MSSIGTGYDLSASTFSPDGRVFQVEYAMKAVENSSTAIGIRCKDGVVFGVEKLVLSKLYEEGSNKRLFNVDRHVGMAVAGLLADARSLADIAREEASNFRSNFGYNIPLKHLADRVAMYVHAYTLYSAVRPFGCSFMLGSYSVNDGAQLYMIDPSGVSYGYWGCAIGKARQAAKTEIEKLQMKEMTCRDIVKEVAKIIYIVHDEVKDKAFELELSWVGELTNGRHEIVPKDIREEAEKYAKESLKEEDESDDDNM

[4] = target: T3, proteasome subunit α5 (PSMA5) (Homo sapiens (Human), UniProt P28066); test: cryo-EM structure of co-purified complex; contact seen within the assembled multi-subunit intermediate (complete α-ring, POMP, β2); isolated pair only cited from earlier work
T3 chain: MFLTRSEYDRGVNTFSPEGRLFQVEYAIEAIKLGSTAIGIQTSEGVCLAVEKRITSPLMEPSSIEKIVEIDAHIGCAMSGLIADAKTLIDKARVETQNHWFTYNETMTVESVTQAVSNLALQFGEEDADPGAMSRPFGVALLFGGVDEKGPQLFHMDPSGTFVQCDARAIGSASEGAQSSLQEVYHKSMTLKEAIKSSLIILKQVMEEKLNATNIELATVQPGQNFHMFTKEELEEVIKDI

[5] = target: T4, proteasome subunit α4 (PSMA7) (Homo sapiens (Human), UniProt O14818); test: cryo-EM structure of co-purified complex; contact seen only within the assembled multi-subunit intermediate (complete α-ring, POMP, β2); pair not tested in isolation
T4 chain: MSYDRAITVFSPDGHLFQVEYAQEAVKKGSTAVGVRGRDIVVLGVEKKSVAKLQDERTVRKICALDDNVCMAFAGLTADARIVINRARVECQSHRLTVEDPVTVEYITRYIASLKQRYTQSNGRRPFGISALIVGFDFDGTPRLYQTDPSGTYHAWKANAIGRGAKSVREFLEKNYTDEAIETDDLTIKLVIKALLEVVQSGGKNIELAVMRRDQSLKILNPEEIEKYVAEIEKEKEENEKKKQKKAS

[6] = target: T5, proteasome subunit α2 (PSMA2) (Homo sapiens (Human), UniProt P25787); test: as above
T5 chain: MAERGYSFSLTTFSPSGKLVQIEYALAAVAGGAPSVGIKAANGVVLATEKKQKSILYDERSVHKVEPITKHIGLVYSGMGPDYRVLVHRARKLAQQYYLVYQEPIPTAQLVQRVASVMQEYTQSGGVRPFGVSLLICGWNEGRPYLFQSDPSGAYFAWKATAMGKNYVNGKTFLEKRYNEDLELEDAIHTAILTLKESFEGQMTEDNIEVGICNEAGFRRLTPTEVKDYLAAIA

[7] = target: proteasome subunit α6 (PSMA1) (Homo sapiens (Human), UniProt P25786); test: cryo-EM structure of co-purified complex; contact seen only within the assembled multi-subunit intermediate (HbYX motifs in α5-α6 and α6-α7 pockets); pair not tested in isolation
Chain of proteasome subunit α6 (PSMA1) (P25786 whole entry): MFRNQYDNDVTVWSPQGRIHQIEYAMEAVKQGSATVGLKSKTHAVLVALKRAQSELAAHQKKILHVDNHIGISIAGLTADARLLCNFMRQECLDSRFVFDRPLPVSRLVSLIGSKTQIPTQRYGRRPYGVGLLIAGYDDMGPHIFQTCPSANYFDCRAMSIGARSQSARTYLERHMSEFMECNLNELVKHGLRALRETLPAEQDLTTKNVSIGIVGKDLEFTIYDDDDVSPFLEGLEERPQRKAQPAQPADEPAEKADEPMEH

- binding result [1]: binds
B1: proteasome maturation protein (POMP) (protein)
chain: MNARGLGSELKDSIPVTELSASGPFESHDLLRKGFSCVKNELLPSHPLELSEKNFQLNQDKMNFSTLRNIQGLFAPLKLQMEFKAVQQVQRLPFLSSSNLSLDVLRGNDETIGFEDILNDPSQSEVMGEPHLMVEYKLGLL

- binding result [2]: binds
B2: PAC3–PAC4 heterodimer (protein)
chain 1: MEDTPLVISKQKTEVVCGVPTQVVCTAFSSHILVVVTQFGKMGTLVSLEPSSVASDVSKPVLTTKVLLGQDEPLIHVFAKNLVAFVSQEAGNRAVLLAVAVKDKSMEGLKALREVIRVCQVW
chain 2: MEGLVVAAGGDVSLHNFSARLWEQLVHFHVMRLTDSLFLWVGATPHLRNLAVAMCSRYDSIPVSTSLLGDTSDTTSTGLAQRLARKTNKQVFVSYNLQNTDSNFALLVENRIKEEMEAFPEKF

- binding result [3]: binds
- binding result [4]: binds
- binding result [5]: binds
- binding result [6]: binds
- binding result [7]: binds
B3: PAC1–PAC2 heterodimer (protein)
chain 1: MAATFFGEVVKAPCRAGTEDEEEEEEGRRETPEDREVRLQLARKREVRLLRRQTKTSLEVSLLEKYPCSKFIIAIGNNAVAFLSSFVMNSGVWEEVGCAKLWNEWCRTTDTTHLSSTEAFCVFYHLKSNPSVFLCQCSCYVAEDQQYQWLEKVFGSCPRKNMQITILTCRHVTDYKTSESTGSLPSPFLRALKTQNFKDSACCPLLEQPNIVHDLPAAVLSYCQVWKIPAILYLCYTDVMKLDLITVEAFKPILSTRSLKGLVKNIPQSTEILKKLMTTNEIQSNIYT
chain 2: MFVPCGESAPDLAGFTLLMPAVSVGNVGQLAMDLIISTLNMSKIGYFYTDCLVPMVGNNPYATTEGNSTELSINAEVYSLPSRKLVALQLRSIFIKYKSKPFCEKLLSWVKSSGCARVIVLSSSHSYQRNDLQLRSTPFRYLLTPSMQKSVQNKIKSLNWEEMEKSRCIPEIDDSEFCIRIPGGGITKTLYDESCSKEIQMAVLLKFVSEGDNIPDALGLVEYLNEWLQILKPLSDDPTVSASRWKIPSSWRLLFGSGLPPALF
